Laboratory results: PMC4220463, “Direct interaction of Plk4 with STIL ensures formation of a single procentriole per parental centriole” (Nature Communications, 2014)

Target: T1, MBP-5Myc-HsSAS-6 full length (human, UniProt Q6UVJ0 1-657)
T1 construct: HsSAS-6 full length, cloned into a modified pENTR-1A-5Myc-MBP vector; also called MBP-HsSAS-6; source: Sf9 (baculovirus), purified (amylose resin); not shown: MBP, N-terminal, kept; 5Myc, N-terminal, kept
T1 sequence (looked up): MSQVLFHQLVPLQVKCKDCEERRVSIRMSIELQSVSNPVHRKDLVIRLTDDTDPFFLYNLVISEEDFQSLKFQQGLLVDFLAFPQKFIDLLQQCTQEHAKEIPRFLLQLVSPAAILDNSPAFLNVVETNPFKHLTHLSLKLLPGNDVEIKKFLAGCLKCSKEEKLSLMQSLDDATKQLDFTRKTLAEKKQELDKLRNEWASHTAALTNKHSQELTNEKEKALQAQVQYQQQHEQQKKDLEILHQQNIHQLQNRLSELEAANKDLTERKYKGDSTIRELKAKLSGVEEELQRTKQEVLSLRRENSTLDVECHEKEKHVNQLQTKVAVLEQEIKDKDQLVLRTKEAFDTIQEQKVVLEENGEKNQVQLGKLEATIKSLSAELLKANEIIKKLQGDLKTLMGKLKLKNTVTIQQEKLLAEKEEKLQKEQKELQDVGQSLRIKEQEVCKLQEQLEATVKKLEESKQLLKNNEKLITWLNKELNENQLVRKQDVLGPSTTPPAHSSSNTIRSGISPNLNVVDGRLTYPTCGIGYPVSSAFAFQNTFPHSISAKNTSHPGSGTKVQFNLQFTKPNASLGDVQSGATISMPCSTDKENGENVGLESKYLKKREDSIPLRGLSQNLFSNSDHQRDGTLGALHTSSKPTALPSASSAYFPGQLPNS
Experiment: pull-down; bacterially purified STIL fragments after an in vitro kinase reaction with Plk4ΔPEST-FLAG on anti-FLAG beads (supernatant; for N3C also the FLAG-peptide eluate) incubated with MBP-HsSAS-6 full length and pulled down with amylose resin; western blot
Conditions: both partners purified

B1: STIL C fragment (a.a. 1,018–1,287) phosphorylated by Plk4ΔPEST-FLAG (domain or fragment, human, UniProt Q15468 1018-1287, looked up)
chain: NAHNVDHASVLACISPEAVISGLNCMSFANVGMSGLSPNGVDLSMEANAIALKYLNENQLSQLSVTRSNQNNCDPFSLLHINTDRSTVGLSLISPNNMSFATKKYMKRYGLLQSSDNSEDEEEPPDNADSKSEYLLNQNLRSIPEQLGGQKEPSKNDHEIINCSNCESVGTNADTPVLRNITNEVLQTKAKQQLTEKPAFLVKNLKPSPAVNLRTGKAEFTQHPEKENEGDITIFPESLQPSETLKQMNSMNSVGTFLDVKRLRQLPKLF
modifications: phosphorylated in vitro by Plk4ΔPEST-FLAG: S1061, S1116, S1181, T1238, T1250
notes: human STIL C fragment, a.a; 1,018–1,287; also called GST-HA-STIL C; C-terminal fragment of STIL; source: E. coli BL21 gold (DE3), purified (glutathione sepharose), then phosphorylated in vitro by Plk4ΔPEST-FLAG; not shown: HA, N-terminal, kept
binding result: binds
